Test: soluble on expression in E. coli; label from the status in PepcDB or PDB records

Sequence | soluble on expression in E. coli
DKFFIWGKRIDYNALKTTLIKKAQDENLLHFTPKISLVEDGFIRSISLGSDLTRPFSLIVDDKGLYIDPNKASKLEELLQNEIFDENMLNRAKNIIKILLENRFSKYNGLKHEDLKINAKIGQKIILIPAQVEDDASMILGGFGLSTLDLLKEVRAKNQDAYIIFKPHPDVLSGNRVGLKDETLILEFCDEIVKDCSIDSAIKIADEIHTITSTSGFDALLRAKKVFTYGMPFYAGWGLTKDKYRCERRIRKLSLEELVAGALIIYPRY | not soluble
MKIVDANVLLYAVNTTSEHHKPSLRWLDGALSGADRVGFAWVPLLAFVRLATKVGLFPRPLPREAAITQVADWLAAPSAVLVNPTVRHADILARMLTYVGTGANLVNDAHLAALAVEHRASIVSYDSDFGRFEGVRWDQPPALL | soluble
MADAAKNALSSIFDKTKDVLSTAADATKGYASQAQQAIGKIIPGANHESDPNAAVAAAQAASGQPVDTTGGVPPAQ | not soluble
MGSDKIHHHHHHMDSVSPELISNNQGYDRSHKQRLECLICNYHVDLNDKSAFSTFFCNVRAFRDEKFPIWRCPTCQTIHCLDVVDIDSYYAKYPFAEAKLTLPFRLCYQNLCQKMIEHGFSKTHSFLDYGCGNGLVVQYLRENGFANAYGYDPYAPKESFGDATVLQRGPFDYILLQDIIEHVEDPHALLSKLDSLLAPGGYLLLGTPNATNIDINRPELSNYYNAVHVPYHIHIYTREVVESLGKQQGWEVVKFFNRGYDDTRWFGLNTRTWNEYQSISDGTFDVIFEEINIWQALKSYRFLFYAFFGYWLSLRTDMTIMFRKKITD | not soluble
FRFCFKQMNKSQHELVLGWIHQPHINEWLHGDGLSNTIKDLHEFLNDGKPWATHWIAYDNEIPFAYLITSEIEKSEEYPDGAVTLDLFICRLDYIGKGLSVQMIHEFILSQFSDTKIVLINPEISNERAVHVYKKAGFEIIGEFIASWHPVPHYKMKLCI | not soluble
MASPSASADDVKLTADGKICLDDPAEFLKRKPKKSILKMKQDSSLEGKDGRAHFDEMNILATYHPTDKDYGSMKIDEPKTPYHHSDGESECDEGVLGVPTTRPRRVSLGNAIDPEKVAEGLAHPESGKSLSSAEDSEDEADLTEEQRAHRRDFEKKRRAHYNEGAALKHHPELEDDEEEATAAAAGAGGNMEH | not soluble
MGSDKIHHHHHHMKLRILSDLHIEHAMPQAVPACDADIVILAGDIANGRDGIDWAARTFGQPLIYVPGNHEYYEGNVDAVDRLMADAAATHPGVHLLNGAVAEFSGASGRVRVLGTTWWTDYCLFGTDRREASMQACSAVMLDHRLIELNGDDGHLRHFSPEDALARHHIASAWLAGQLALPFDGKTVVVTHHGPDLGSLDPRYSHDLVSGGFLSRRPDLVAQADLWIHGHTHTSFDYCIDTSRVVCNPRGYVSRRTGELENSRFDWCCVVEI | not soluble
MNRSALDFRHFVDHLRRQGDLVDVHTEVDANLEIGAITRRVYERRAPAPLFHNIRDSLPGARVLGAPAGLRADRARAHSRLALHFGLPEHSGPRDIVAMLRAAMRAEPIAPRRLERGPVQENVWLGEQVDLTRFPVPLLHEQDGGRYFGTYGFHVVQTPDGSWDSWSVGRLMLVDRNTLAGPTIPTQHIGIIREQWRRLGKPTPWAMALGAPPAALAAAGMPLPEGVSEAGYVGALVGEPVEVVRTQTNGLWVPANTEIVLEGEISLDETALEGPMGEYHGYSFPIGKPQPLFHVHALSFRDQPILPICVAGTPPEENHTIWGTMISAQLLDVAQNAGLPVDMVWCSYEAATCWAVLSIDVQRLAALGTDAAAFAARVAETVFGSHAGHLVPKLILVGNDIDVTEIDQVVWALATRAHPLHDHFAFPQIRDFPMVPYLDAEDKARGSGGRLVINCLYPEQFAGQMRAATASFRHAYPTALRRRVEERWSDYGFGDALEHHHHHH | not soluble
MTTINPTNYTLLKKQAASLIEDEHHMIAILSNMSALLNDNLDQINWVGFYLLEQNELILGPFQGHPACVHIPIGKGVCGTAVSERRTQIVADVHQFEGHIACDANSKSEIVVPIFKDDKIIGVLDIDAPITDRFDDNDKEHLEAIVKIIEKQLA | not soluble
HLYPGEVCPGMDIRNNLTRLHELENCSVIEGHLQILLMFKTRPEDFRDLSFPKLIMITDYLLLFRVYGLESLKDLFPNLTVIRGSRLFFNYALVIFEMVHLKELGLYNLMNITRGSVRIEKNNELCYLATIDWSRILDSVEDNHIVLNKDDNEECGDICPGTAKGKTNCPATVINGQFVERCWTHSHCQKVCPTICKSHGCTAEGLCCHSECLGNCSQPDDPTKCVACRNFYLDGRCVETCPPPYYHFQDWRCVNFSFCQDLHHKCKNSRRQGCHQYVIHNNKCIPECPSGYTMNSSNLLCTPCLGPCPKVCHLLEGEKTIDSVTSAQELRGCTVINGSLIINIRGGNNLAAELEANLGLIEEISGYLKIRRSYALVSLSFFRKLRLIRGETLEIGNYSFYALDNQNLRQLWDWSKHNLTITQGKLFFHYNPKLCLSEIHKMEEVSGTKGRQERNDIALKTNGDQASCENELLKFSYIRTSFDKILLRWEPYWPPDFRDLLGFMLFYKEAPYQNVTEFDGQDACGSNSWTVVDIDPPLRSNDPKSQNHPGWLMRGLKPWTQYAIFVKTLVTFSDERRTYGAKSDIIYVQTDATNPSVPLDPISVSNSSSQIILKWKPPSDPNGNITHYLVFWERQAEDSELFELDYCLKGLKLPSRTWSPPFESEDSQKHNQSEYEDSAGECCSCPKTDSQILKELEESSFRKTFEDYLHNVVFVPRPSRKRRSLGDVGNHGNNVPTVAAFPNTSSTSVPTSPEEHRPFEKVVNKESLVISGLRHFTGYRIELQACNQDTPEERCSVAAYVSARTMPEAKADDIVGPVTHEIFENNVVHLMWQEPKEPNGLIVLYEVSYRRYGDEELHLCDTRKHFALERGCRLRGLSPGNYSVRIRATSLAGNGSWTEPTYFYVTDYLDVPSNIAK | soluble
MGSDKIHHHHHHMIESIQELLQKEAQAVLNIPVTDAYEKAVELIVEQIHRKKGKLVTSGMGKAGQIAMNIATTFCSTGIPSVFLHPSEAQHGDLGILQENDLLLLISNSGKTREIVELTQLAHNLNPGLKFIVITGNPDSPLASESDVCLSTGHPAEVCTLGMTPTTSTTVMTVIGDILVVQTMKRTEFTIEEYSKRHHGGYLGEKSRKLCVK | not soluble
MIVSFKCVHTRYLFLQGKTRLWPSIKSVAERKLAMLDAATSILDLRSPPGNRLEALDGSRSGQYSVRINAPFRICFVWSINGPEDVEIVDYH | not soluble
MSEPASVPRGAAPGSRGTASPRAVVIGAGLAGMLAAAALHRHAEVTVVDRDVLPAEPAPRKGLPQARHAHLLWSGGARAMEDLLPGVTAAWLAAGARRIPLPTGLVSLSAQGWLRRWPEMEFMISCTRDLLDSVIREQVAKKEGVTLLAGTELLGLEGGALRVTGVRVRTPEGEERVLEADLVVDASGRGSRSVAWLDALGVPQAPMDEVDSGLAYASRIFRAPAGTEDFPVVNVQPDPAQPVPAQSATIVPVEGGRWLVTLSGTHGGQPTASAEEFEAFARGVRDPVVGELIAHAEPLTNVVLTRSTINRRRFFEKVKDWPEGFVAIGDAVATYNPVYGHGMSVAAQGAVALREHVAEHGLAAPGLARRAQRAVALPVKIAWELATGTDIRYPEAIGKQPGGTQKLLGRYVERLMRTATGRPLVAQAFLGVITLSRPLSTLVKPEVLFAVLRGPRRSPLAGPPLTPEERKAVLTAKEPSGTQAAGLEHHHHHH | not soluble
MGHHHHHHSHMASVSSATFSGHGARSLLQFLRLVGQLKRVPRTGWVYRNVQRPESVSDHMYRMAVMAMVIKDDRLNKDPEAMKQITQLLPEDLRKELYELWEEYETQSSAEAKFVKQLDQCEMILQASEYEDLEHKPGRLQDFYDSTAGKFNHPEIVQLVSELEAERSTNIAAAASEPHS | soluble
MGHHHHHHGSSIETDRVSKEFIEFLKTFHKTGQEIYKQTKLFLEGMHYKRDLSIEEQSECAQDFYHNVAERMQTRGKVPPERVEKIMDQIEKYIMTRLYKYVFCPETTDDEKKDLAIQKRIRALRWVTPQMLCVPVNEDIPEVSDMVVKAITDIIEMDSKRVPRDKLACITKCSKHIFNAIKITKNEPASADDFLPTLIYIVLKGNPPRLQSNIQYITRFCNPSRLMTGEDGYYFTNLCCAVAFIEKLDAQSLNLSQEDFDRYMSGQTSPRKQ | soluble
MKAVSRVHITPHMHWDREWYFTTEESRILLVNNMEEILCRLEQDNEYKYYVLDGQTAILEDYFAVKPENKDRVKKQVEAGKLIIGPWYTQTDTTIVSAESIVRNLMYGMRDCLAFGEPMKIGYLPDSFGMSGQLPHIYNGFGITRTMFWRGCSERHGTDKTEFLWQSSDGSEVTAQVLPLGYAIGKYLPADENGLRKRLDSYFDVLEKASVTKEILLPNGHDQMPLQQNIFEVMDKLREIYPQRKFVMSRFEEVFEKIEAQRDNLATLKGEFIDGKYMRVHRTIGSTRMDIKIAHARIENKIVNLLEPLATLAWTLGFEYHHGLLEKMWKEILKNHAHDSIGCCSDKVHREIVARFELAEDMADNLIRFYMRKIADNMPQSDADKLVLFNLMPWPREEVINTTVRLRASQFNLRDDRGQPVPYFIRHAREIDPGLIDRQIVHYGNYDPFMEFDIQINQIVPSMGYRTLYIEANQPGNVIAAKSDAEGILENAFWQIALNEDGSLQLVDKDSGVRYDRVLQIEESSDDGDEYDYSPAKEEWVITAANAKPQCDIIHEAWQSRAVIRYDMAVPLNLSERSARQSTGRVGVVLVVTLSHNSRRIDVDINLDNQADDHRLRVLVPTPFNTDSVLADTQFGSLTRPVNDSAMNNWQQEGWKEAPVPVWNMLNYVALQEGRNGMAVFSEGLREFEVIGEEKKTFAITLLRGVGLLGKEDLLLRPGRPSGIKMPVPDSQLRGLLSCRLSLLSYTGTPTAAGVAQQARAWLTPVQCYNKIPWDVMKLNKAGFNVPESYSLLKMPPVGCLISALKKAEDRQEVILRLFNPAESATCDATVAFSREVISCSETMMDEHITTEENQGSNLSGPFLPGQSRTFSYRLA | not soluble
MVLLVNIDDNEKWDNTVKGFENFDVYYLSGYVKAFHAHGDGEPKLFFYEDSNIKAINVFMKRDIEKDQNFSGKIPPNTFYDAATPYGYGGFLIEGNVTDESLRTLEKEYSELCLNEGIISEFVRFHPVINNSGTVSSIYDILELGRTVTIELDSREKVWEGFAGNNRNKVRKAKKSGVEIFWGRSPKLFDTFIPMYNETMDNDGASGYYYFKKDFYNSILEDLKYNSLIFYAVFEDRIISMSIILFANKQMHYHLSATDREYRNLAPTNLLLYEAACWGIENGYKTFHLGGGLGSREDSLYQFKKGFNKNSSTYFCIGKKIFDKEKYDELIKIRKQDPYFDENKLFFPLYRG | not soluble
MGSDKIHHHHHHMKTLLGIIAGKAAQSILTKLGRGSTYPGRLALACDKDILKDLSKDYDIVVVTGTNGKTLTTALTVGILKEAFGEIITNPSGANMITGITSTFLAAKKGKSERQIAVLEIDEASLPRITTYLKPSLFVYTNIFRDQMDRYGEIYTTYQMIVDGARNAPKATILANGDSPIFSSKDIVNPVQYYGFDTAKHAPQLAHYNTEGILCPKCEHILQYRLNTYANLGDFVCLNCQFQRPTLDYQLTELTAITHQSSEFVIDGQNYKINVGGLYNIYNALAAVSVAEFFGVSPEKIKAGFNKSKAVFGRQETFTVGDKSCTLILIKNPVGASQALEMIQLADYPFSLSVLLNANYADGIDTSWIWDANFELITQMPITEINAGGVRHSEIARRLRVTGFDDTKIKQAEKLEQIIETIEKQEAKHAYILATYTAMLEFRSLLADRHVVEKEMI | not soluble
MARPQSKKKQTQIVRRSRPRGRLVPPGRLIAGRDFPEFLQQAVLLSGSLRQAARKLRVSYSTLRGWLGRRCEEPPEAERDLLAEHAAAIRAELDAASEHLATVRGQLDVLEHGE | not soluble
